Biological target: histone H2A-N38C (Xenopus laevis)
Test: cross-linking

## histone H2A-N38C (natural protein)
  stoichiometry N: 2

From article PMC5757783
